Where “and” joins values, the source holds several entries; their conditions need not be identical. Equal values may be shown once. Read-outs that look alike come from different tables or passages of the source.

The values below come from paper PMC12198772 (PNAS Nexus, 2025).

What all share (assay): BLI
The target in assay [1] is T1, human eye lens-specific protein 20, histidine-tagged (human) (UniProt P55344).
T1 sequence: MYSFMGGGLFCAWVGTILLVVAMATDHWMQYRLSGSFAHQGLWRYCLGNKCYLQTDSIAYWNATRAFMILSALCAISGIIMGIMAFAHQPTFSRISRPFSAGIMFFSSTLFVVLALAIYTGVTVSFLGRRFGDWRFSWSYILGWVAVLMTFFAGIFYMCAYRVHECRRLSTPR

The target of assay [2] is T2, human claudin-6 (human, UniProt P56747).
Assay [3] deals with murine claudin-3 (mouse, UniProt Q9Z0G9).
Assay [4] addresses T3, human claudin-9 (human, UniProt O95484).
In assay [5] the target is T4, human claudin-4 (human, UniProt O14493).
The target in assay [6] is T5, human claudin-18 splice variant 18.2 (human, UniProt P56856-2).
The target in assay [7] is murine claudin-4 (mouse, UniProt O35054).
Assay [8] deals with T6, murine claudin-15 (mouse, UniProt Q9Z0S5).
Assay [9] deals with T7, human claudin-3 (human, UniProt O15551).
The target of assay [10] is T8, human claudin-17 (human, UniProt P56750).
In assay [11] the target is T9, human claudin-1 (human, UniProt O95832).
In assay [12] the target is T10, human claudin-19 (human, UniProt Q8N6F1).
The target in assay [13] is T11, human claudin-5 (human, UniProt O00501).
Assay [14] has as its target T12, human claudin-18 splice variant 18.1 (human, UniProt P56856).
In assay [15] the target is C-terminal domain of Clostridium perfringens enterotoxin, tag removed (Clostridium perfringens, UniProt P01558).
Assay [16] deals with human occludin (Homo sapiens, UniProt Q16625).
Assay [17] addresses Kune-kune from Drosophila melanogaster (Drosophila melanogaster, UniProt A1Z6H0).
The target in assay [18] is T2, human claudin-6. The source holds these as a separate data set.
For assay [19], the target named is T3, human claudin-9. The source holds these as a separate data set.
Assay [20] addresses T4, human claudin-4. The source holds these as a separate data set.
Assay [21] deals with T5, human claudin-18 splice variant 18.2. This is another data set of the same source.
The target of assay [22] is T6, murine claudin-15. This is another data set of the same source.
The target in assay [23] is T7, human claudin-3. This is another data set of the same source.
Assay [24] addresses T8, human claudin-17. This is another data set of the same source.
Assay [25] addresses T9, human claudin-1. This is another data set of the same source.
Assay [26] deals with human peripheral myelin protein 22 (Homo sapiens, UniProt Q01453).
The target of assay [27] is T10, human claudin-19. This is another data set of the same source.
The target in assay [28] is T11, human claudin-5. The source holds these as a separate data set.
For assay [29], the target named is T12, human claudin-18 splice variant 18.1. The source holds these as a separate data set.
Assay [30] concerns the target T13, human claudin-19 (human, UniProt Q8N6F1 1-224).
T13 sequence: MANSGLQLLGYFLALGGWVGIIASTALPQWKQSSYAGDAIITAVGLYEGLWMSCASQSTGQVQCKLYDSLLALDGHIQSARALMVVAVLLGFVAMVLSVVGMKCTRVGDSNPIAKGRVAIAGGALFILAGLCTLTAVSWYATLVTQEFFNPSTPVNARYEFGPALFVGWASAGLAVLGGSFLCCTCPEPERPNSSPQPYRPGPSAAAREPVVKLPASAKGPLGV

The target in assay [31] is T14, human claudin-9 (human, UniProt O95484 1-217).
T14 sequence: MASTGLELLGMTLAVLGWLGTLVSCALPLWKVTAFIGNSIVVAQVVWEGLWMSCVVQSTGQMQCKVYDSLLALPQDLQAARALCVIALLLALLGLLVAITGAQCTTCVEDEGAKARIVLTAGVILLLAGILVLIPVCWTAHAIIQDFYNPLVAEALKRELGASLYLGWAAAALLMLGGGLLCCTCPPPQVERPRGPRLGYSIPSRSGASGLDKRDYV

In assay [32] the target is T15, human claudin-6 (human, UniProt P56747 1-220).
T15 sequence: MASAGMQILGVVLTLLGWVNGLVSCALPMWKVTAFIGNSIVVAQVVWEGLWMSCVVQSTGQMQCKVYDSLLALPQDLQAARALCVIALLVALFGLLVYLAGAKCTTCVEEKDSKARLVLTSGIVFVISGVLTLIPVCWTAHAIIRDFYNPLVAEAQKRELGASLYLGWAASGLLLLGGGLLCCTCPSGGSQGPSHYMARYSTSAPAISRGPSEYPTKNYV

In assay [33] the target is T16, human claudin-17 (human, UniProt P56750 1-224).
T16 sequence: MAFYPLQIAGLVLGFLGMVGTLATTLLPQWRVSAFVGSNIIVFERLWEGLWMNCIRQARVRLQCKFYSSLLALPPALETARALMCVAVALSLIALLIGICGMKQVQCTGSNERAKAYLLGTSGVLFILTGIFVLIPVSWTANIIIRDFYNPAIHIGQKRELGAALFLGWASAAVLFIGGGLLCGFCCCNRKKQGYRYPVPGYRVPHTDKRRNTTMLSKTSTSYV

The target in assay [34] is T17, murine claudin-4 (mouse, UniProt O35054 1-210).
T17 sequence: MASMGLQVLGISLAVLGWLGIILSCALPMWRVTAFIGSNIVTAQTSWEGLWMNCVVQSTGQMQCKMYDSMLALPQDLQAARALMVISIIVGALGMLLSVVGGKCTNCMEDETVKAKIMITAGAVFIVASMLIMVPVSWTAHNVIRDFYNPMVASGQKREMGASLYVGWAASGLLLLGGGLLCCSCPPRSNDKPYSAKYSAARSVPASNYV

Sequence of human peripheral myelin protein 22 (Q01453 whole entry): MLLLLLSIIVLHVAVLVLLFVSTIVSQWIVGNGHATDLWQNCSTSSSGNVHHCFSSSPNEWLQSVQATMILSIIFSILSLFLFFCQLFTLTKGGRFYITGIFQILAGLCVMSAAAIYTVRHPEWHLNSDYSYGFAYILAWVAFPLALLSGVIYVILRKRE
T4 sequence (O14493 whole entry, canonical isoform): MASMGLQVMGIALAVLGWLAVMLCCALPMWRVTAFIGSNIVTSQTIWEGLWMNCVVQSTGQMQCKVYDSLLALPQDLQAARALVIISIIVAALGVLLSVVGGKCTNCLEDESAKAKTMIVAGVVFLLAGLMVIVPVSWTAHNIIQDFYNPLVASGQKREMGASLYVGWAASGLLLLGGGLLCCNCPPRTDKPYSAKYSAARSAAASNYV
T6 sequence (Q9Z0S5 whole entry): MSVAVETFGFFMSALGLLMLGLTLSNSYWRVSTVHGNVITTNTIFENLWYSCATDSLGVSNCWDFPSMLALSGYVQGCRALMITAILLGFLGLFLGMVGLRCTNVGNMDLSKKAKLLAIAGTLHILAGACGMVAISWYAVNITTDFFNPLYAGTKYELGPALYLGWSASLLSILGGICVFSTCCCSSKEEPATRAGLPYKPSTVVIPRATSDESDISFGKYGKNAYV
T11 sequence (O00501 whole entry, canonical isoform): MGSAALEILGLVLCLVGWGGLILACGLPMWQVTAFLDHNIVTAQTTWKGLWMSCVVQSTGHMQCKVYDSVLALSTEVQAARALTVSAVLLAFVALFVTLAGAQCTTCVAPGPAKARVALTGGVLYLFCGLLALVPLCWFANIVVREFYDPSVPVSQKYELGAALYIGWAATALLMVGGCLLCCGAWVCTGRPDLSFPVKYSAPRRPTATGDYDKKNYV
T7 sequence (O15551 whole entry): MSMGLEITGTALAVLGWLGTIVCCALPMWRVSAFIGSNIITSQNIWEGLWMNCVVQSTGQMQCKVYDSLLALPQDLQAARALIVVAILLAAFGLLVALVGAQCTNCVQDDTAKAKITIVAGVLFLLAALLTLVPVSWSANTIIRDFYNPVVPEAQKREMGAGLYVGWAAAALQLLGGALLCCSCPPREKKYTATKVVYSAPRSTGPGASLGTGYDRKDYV
T9 sequence (O95832 whole entry): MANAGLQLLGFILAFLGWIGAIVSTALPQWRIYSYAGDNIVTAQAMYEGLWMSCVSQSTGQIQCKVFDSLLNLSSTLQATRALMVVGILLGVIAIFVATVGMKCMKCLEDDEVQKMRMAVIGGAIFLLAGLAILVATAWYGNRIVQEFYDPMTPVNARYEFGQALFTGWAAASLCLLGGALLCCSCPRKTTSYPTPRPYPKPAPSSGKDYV
Sequence of murine claudin-3 (Q9Z0G9 whole entry): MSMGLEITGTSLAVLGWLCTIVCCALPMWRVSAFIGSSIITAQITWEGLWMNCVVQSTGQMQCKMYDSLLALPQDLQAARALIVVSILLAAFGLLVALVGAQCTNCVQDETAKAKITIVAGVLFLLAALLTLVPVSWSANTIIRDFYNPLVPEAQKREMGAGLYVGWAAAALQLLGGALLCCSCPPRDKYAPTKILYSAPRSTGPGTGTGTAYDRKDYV
Sequence of human occludin (Q16625 whole entry): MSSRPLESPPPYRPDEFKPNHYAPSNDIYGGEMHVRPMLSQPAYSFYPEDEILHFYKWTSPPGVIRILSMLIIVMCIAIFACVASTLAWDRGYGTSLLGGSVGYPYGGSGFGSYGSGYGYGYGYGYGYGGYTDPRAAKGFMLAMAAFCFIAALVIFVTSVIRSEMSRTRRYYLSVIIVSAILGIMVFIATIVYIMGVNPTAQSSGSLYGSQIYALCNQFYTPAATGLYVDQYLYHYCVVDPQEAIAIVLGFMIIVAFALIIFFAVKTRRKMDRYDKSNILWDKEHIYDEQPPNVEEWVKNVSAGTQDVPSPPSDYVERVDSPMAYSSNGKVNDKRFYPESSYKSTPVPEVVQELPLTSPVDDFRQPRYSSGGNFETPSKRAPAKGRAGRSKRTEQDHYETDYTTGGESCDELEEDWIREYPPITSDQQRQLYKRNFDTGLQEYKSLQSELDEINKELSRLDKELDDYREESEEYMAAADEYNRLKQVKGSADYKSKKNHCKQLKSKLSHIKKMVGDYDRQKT

B1: COP-1 synthetic antibody fragment (sFab) without histidine tag (Fab, V domains shown)
VH: EVQLVESGGGLVQPGGSLRLSCAASGFNFSSSYIHWVRQAPGKGLEWVASISSSSGSTSYADSVKGRFTISADTSKNTAYLQMNSLRAEDTAVYYCARWFHPWWWWEYLFRGAIDYWGQGTLVTVSS
VL: DIQMTQSPSSLSASVGDRVTITCRASQSVSSAVAWYQQKPGKAPKLLIYSASSLYSGVPSRFSGSRSGTDFTLTISSLQPEDFATYYCQQSSSSLITFGQGTKVEIK
In assay [1], B1 came in with an equilibrium dissociation constant (Kd) of 2780 nM and a koff of 0.11 s⁻¹.

B2: COP-1 synthetic antibody fragment (sFab) with C-terminal histidine tag (Fab, V domains shown)
VH: B1 VH
VL: B1 VL
For the molecule B2, the Kd in assay [2] is 59 ± 0.9 nM; in assay [3], 90.5 ± 1.2 nM; in assay [4] it was 69.9 ± 1.2 nM; in assay [5] it was 72.8 ± 0.9 nM; in assay [6] it was 62.8 nM and 55.6 nM; in assay [7], 99.6 ± 1.2 nM. Also, the Kd in assay [8] was 63.3 nM and 61.2 nM; in [9], 64.2 ± 1.1 nM; in assay [10], 65.5 ± 0.9 nM; in [11] it was 76.3 nM and 73.2 nM; in [12] it was 62.4 ± 1.1 nM; in assay [13] it was 72 nM and 65.5 nM. Besides, the equilibrium dissociation constant (Kd) in [14] was 83.4 nM and 56.7 nM; in assay [17], 238 ± 2.9 nM; in assay [18] it was 59.5 ± 0.4 nM; in assay [19], 66 ± 0.4 nM; in [20], 70.6 nM and 106 nM; in assay [21] it was 66.4 ± 0.5 nM. Further, the Kd in assay [22] was determined as 59 ± 0.5 nM; in [23] it was 57.9 ± 0.5 nM; in [24], 80.2 ± 0.6 nM; in assay [25], 61.3 ± 0.5 nM; in assay [26] it was 109.5 ± 0.8 nM; in assay [27] it was 62.2 ± 0.4 nM. Moreover, the Kd is 75.8 ± 0.5 nM in assay [28] and 92.4 ± 0.5 nM in assay [29]. The binding result in assay [15] is “no binding”; in assay [16], “no binding (tested: 500 nM)”. Further, the off-rate constant (koff) in assay [17] is 0.0044 s⁻¹; in assay [18], 0.0011 s⁻¹; in assay [19], 0.0015 s⁻¹; in assay [21] it was 0.0009 s⁻¹; in assay [22], 0.0012 s⁻¹; in assay [23], 0.0012 s⁻¹. For the same molecule, the koff in assay [24] was found to be 0.0015 s⁻¹; in assay [25], 0.0009 s⁻¹; in assay [26], 0.002 s⁻¹; in [27], 0.0011 s⁻¹; in [28] it was 0.0015 s⁻¹; in assay [29], 0.0014 s⁻¹. Further, the kon in assay [17] was determined as 18000 M⁻¹ s⁻¹; in assay [18] it was 18000 M⁻¹ s⁻¹; in assay [19] it was 22000 M⁻¹ s⁻¹; in [21] it was 13000 M⁻¹ s⁻¹; in assay [22], 21000 M⁻¹ s⁻¹; in [23] it was 21000 M⁻¹ s⁻¹. For the same molecule, the kon stood at 19000 M⁻¹ s⁻¹ in assay [24]; 15000 M⁻¹ s⁻¹ in assay [25]; 18000 M⁻¹ s⁻¹ in assay [26]; 17000 M⁻¹ s⁻¹ in assay [27]; 19000 M⁻¹ s⁻¹ in assay [28]; 16000 M⁻¹ s⁻¹ in assay [29]. Also, the t1/2 was 2.7 min in assay [17]; 10.5 min in [18]; 7.7 min in assay [19]; 12.8 min in assay [21]; 9.6 min in assay [22]; 9.6 min in assay [23]. Also, the t1/2 in assay [24] was found to be 7.7 min; in [25], 12.8 min; in [26], 5.8 min; in [27] it was 10.5 min; in assay [28], 7.7 min; in assay [29], 8.3 min.

B3: C-terminal domain of Clostridium perfringens enterotoxin, histidine-tagged (domain or fragment)
chain: EILDLAAATERLNLTDALNSNPAGNLYDWRSSNSYPWTQKLNLHLTITATGQKYRILASKIVDFNIYSNNFNNLVKLEQSLGDGVKDHYVDISLDAGQYVLVMKANSSYSGNYPYSILFQKF
As to B3, the Kd in assay [30] was 27.5 nM; in assay [31] it was below 20 nM; in [32], 51.4 nM; in [33], 27 nM; in [34] it was below 20 nM.
